Source: patent publication US20260184815A1 (published 2026)
Changes are numbered by the printed parent chain.

B1: M28-C03 (Fab, V domains shown)
VH: EVQLLESGGGLVQPGGSLRLSCAASGFTFSYYQMGWVRQAPGKGLEWVSSIYPSGGMTDYADSVKGRFTISRDNSKNTLYLQMNSLRAEDTAVYYCTRGSPWGDDAFDIWGQGTMVTVSS
VL: DIQMTQSPSSLSASVGDRVTITCRASQSINFYLNWYQQKPGKAPKLLIYVASSLESGVPSRFSGSASGTEFTLTISSLQPEDFATYYCLQSYSAPYTFGQGTKVEIT
notes: HC as printed runs into CH1
B2: M27-H10 (Fab, V domains shown)
VH: EVQLLESGGGLVQPGGSLRLSCAASGFTFSAYQMAWVRQAPGKGLEWVSVIYSSGGYTDYADSVKGRFTISRDNSKNTLYLQMNSLRAEDTAVYYCARHNWNDGAFDIWGQGTMVTVSS
VL: DIQMTQSPSSLSASVGDRVTITCRASQSISNYLNWYQQKPGKAPKFLIYAASSLQSGVPSRFSGSGSGTDFTLSISSLQPEDFATYYCQQSYSTPQTFGQGTKVEMK
notes: HC as printed runs into CH1
B3: M28-E01 (Fab, V domains shown)
VH: EVQLLESGGGLVQPGGSLRLSCAASGFTFSSYPMGWVRQAPGKGLEWVSRISSSGGMTIYADSVKGRFTISRDNSKNTLYLQMNSLRAEDTAVYYCARDDWNVGMDVWGQGTTVTVSS
VL: B2 VL with N31S, F46L, R61K, F71Y, S74T, S91T, S93T, Q96W, M106I
notes: HC as printed runs into CH1
B4: M28-F01 (Fab, V domains shown)
VH: EVQLLESGGGLVQPGGSLRLSCAASGFTFSVYLMHWVRQAPGKGLEWVSGISPSGGYTQYADSVKGRFTISRDNSKNTLYLQMNSLRAEDTAVYYCARPGGLDAFDIWGQGTMVTVSS
VL: B2 VL with S30N, N31T, F46V, Y49H, S53T, Q55E, S74T, Q96P, M106I
notes: HC as printed runs into CH1
B5: M28-A01 (Fab, V domains shown)
VH: EVQLLESGGGLVQPGGSLRLSCAASGFTFSWYAMHWVRQAPGKGLEWVSGIYSSGGYTKYADSVKGRFTISRDNSKNTLYLQMNSLRAEDTAVYYCARDLSNGDDVFDIWGQGTMVTVSS
VL: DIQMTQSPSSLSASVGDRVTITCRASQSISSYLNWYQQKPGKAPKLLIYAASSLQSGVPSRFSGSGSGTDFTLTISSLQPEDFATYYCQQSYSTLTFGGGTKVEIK
notes: HC as printed runs into CH1
B6: M27-F04 (Fab, V domains shown)
VH: EVQLLESGGGLVQPGGSLRLSCAASGFTFSWYPMTWVRQAPGKGLEWVSSIGPSGGQTIYADSVKGRFTISRDNSKNTLYLQMNSLRAEDTAVYYCTTEYGDYGGGFDPWGQGTLVTVSS
VL: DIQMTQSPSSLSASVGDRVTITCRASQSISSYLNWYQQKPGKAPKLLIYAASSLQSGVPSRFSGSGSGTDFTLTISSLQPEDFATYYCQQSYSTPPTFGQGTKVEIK
notes: HC as printed runs into CH1
B7: M28-D12 (Fab, V domains shown)
VH: EVQLLESGGGLVQPGGSLRLSCAASGFTFSWYTMHWVRQAPGKGLEWVSVIYPSGGPTSYADSVKGRFTISRDNSKNTLYLQMNSLRAEDTATYYCARDGSGSYLGFDYWGQGTLVTVSS
VL: DIQMTQSPSSLSASVGDRVTITCRASQSIATYLNWYQQKPGRAPKLLIYAASSLQSGVPSRFVGGGSGSGTHFTLTISSLQPEDFATYYCQQSYSTRETFGQGTKVEIK
notes: HC as printed runs into CH1
B8: M27-E03 (Fab, V domains shown)
VH: EVQLLESGGGLVQPGGSLRLSCAASGFTFSSYMMHWVRQAPGKGLEWVSGIYPSGGWTDYADSVKGRFTISRDNSKNTLYLQMNSLRAEDTATYYCARLVAGLDAFDIWGQGTMVTVSS
VL: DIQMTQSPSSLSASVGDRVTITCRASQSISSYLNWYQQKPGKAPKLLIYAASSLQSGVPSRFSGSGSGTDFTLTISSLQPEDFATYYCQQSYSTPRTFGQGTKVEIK
notes: HC as printed runs into CH1
B9: M27-G01 (Fab, V domains shown)
VH: EVQLLESGGGLVQPGGSLRLSCAASGFTFSLYRMFWVRQAPGKGLEWVSSIWSSGGPTMYADSVKGRFTISRDNSKNTLYLQMNSLRAEDTAVYYCAREYPSTYYFDYWGQGTLVTVSS
VL: DIQMTQSPSSLSASVGDRVTITCRASQSISTYLNWYQQKPGKAPKLLIYGASSLQSGVPSRFSGSGSGTDFTLTISSLQPEDFTIYYCQQSYSDPYTFGQGTKLDIK
notes: HC as printed runs into CH1
B10: M27-G04 (Fab, V domains shown)
VH: EVQLLESGGGLVQPGGSLRLSCAASGFTFSAYYMVWVRQAPGKGLEWVSYISPSGGQTQYADSVKGRFTISRDNSKNTLYLQMNSLRAEDTAVYYCAREAISSSSFDYWGQGTLVTVSS
VL: DIQMTQSPSSLSASVGDRVTITCRASQRISYYLTWYQQKPGKVPKLLIYAASSLESGVPSRFSGSGSGTDFTLTISNLQPEDFATYYCQQAFSTPFTFGGGTKVEIK
notes: HC as printed runs into CH1
B11: M29-C07 (Fab, V domains shown)
VH: EVQLLESGGGLVQPGGSLRLSCAASGFTFSGYDMMWVRQAPGKGLEWVSVISSSGGNTAYADSVKGRFTISRDNSKNTLYLQMNSLRAEDTAVYYCARESSGLYYFDYWGQGTLVTVSS
VL: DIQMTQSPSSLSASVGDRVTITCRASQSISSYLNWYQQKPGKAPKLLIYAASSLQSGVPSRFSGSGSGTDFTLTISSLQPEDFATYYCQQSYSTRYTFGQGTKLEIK
notes: HC as printed runs into CH1
B12: M27-B01 (Fab, V domains shown)
VH: EVQLLESGGGLVQPGGSLRLSCAASGFTFSDYTMWWVRQAPGKGLEWVSSISSSGGITFYADSVKGRFTISRDNSKNTLYLQMNSLRAEDTAVYYCARSADTAMGGAFDIWGQGTMVTVSS
VL: not shown
notes: HC as printed runs into CH1
B13: M28-F07 (Fab, V domains shown)
VH: EVQLLESGGGLVQPGGSLRLSCAASGFTFSDYTMYWVRQAPGKGLEWVSSIVPSGGHTLYADSVKGRFTISRDNSKNTLYLQMNSLRAEDTAVYYCAKDHLSSWYGGFFDYWGQGTLVTVSS
VL: DIQMTQSPSSVSASVGDRVTITCRASQGISSWLAWYQQKPGKAPKLLIYATSGLQSGVPSRFSGSGSGTDFTLTISSLQPEDFATYYCQQAKSFPLTFGGGTRVEIK
notes: HC as printed runs into CH1
B14: M27-G09 (Fab, V domains shown)
VH: EVQLLESGGGLVQPGGSLRLSCAASGFTFSEYDMAWVRQAPGKGLEWVSYIVSSGGFTSYADSVKGRFTISRDNSKNTLYLQMNSLRAEDTAVYYCTTWAGWIAAADYWGQGTLVTVSS
VL: DIQMTQSPSSVSASVGDRITITCRTRQSISNYLNWYQQKPGEPPKLLIFAASSLQSGVPSRFSGSGTGTEFTLTISSLQPEDLAIYYCQQSYDIPFTFGQGTKLEIK
notes: HC as printed runs into CH1
B15: M27-F11 (Fab, V domains shown)
VH: EVQLLESGGGLVQPGGSLRLSCAASGFTFSSYHMMWVRQAPGKGLEWVSSIYPSGGATMYADSVKGRFTISRDNSKNTLYLQMNSLRAEDTAMYYCARDGYHYGDYTYFQHWGQGTLVTVSS
VL: DIQMTQSPSFLSASVGDRVTITCRASQGISSYLAWYQQKPGKAPKLLIYAASSLQSGVPSRFSGSGSGTDFTLTISSLQPEDFATYYCQQSYNTLRTFGPGTKVDLK
notes: HC as printed runs into CH1
B16: M27-B12 (Fab, V domains shown)
VH: EVQLLESGGGLVQPGGSLRLSCAASGFTFSWYQMMWVRQAPGKGLEWVSSISPSGGITEYADSVKGRFTISRDNSKNTLYLQMNSLRAEDTAVYYCARDRSSGWYYYGMDVWGQGTTVTVSS
VL: QYELTQPPAVSVSPGQTATITCSGDKLGDEYAAWYQQKPGQSPVLVIYQDRKRPSGIPERFSGSNFGNTATLTITGTQVMDEADYYCQAWGKRNVVFGGGTKLTVL
notes: HC as printed runs into CH1
B17: M28-E11 (Fab, V domains shown)
VH: EVQLLESGGGLVQPGGSLRLSCAASGFTFSLYDMTWVRQAPGKGLEWVSGISSSGGVTIYADSVKGRFTISRDNSKNTLYLQMNSLRAEDTAVYYCARTYYYDSSGYADAFDIWGQGTMVTVSS
VL: DIQMTQSPSSVSASVGDRVTINCRASQDISNWLAWYQQKPGKAPNLLIYAASSLQTGAPSRFSGSGSGTDFTLTISSLQPEDFGTYVCQQSYSLPWTFGLGTKVEVR
notes: HC as printed runs into CH1

What follows are binders tested against T1, human plasma kallikrein (human, UniProt P03952 20-390; P03952 391-638) (assay: ELISA, biotinylated pKal signal over streptavidin background).
T1 construct: also called pKal; Human pKal
From the text: Abbreviations used: “T/B” is the ELISA signal obtained using of the “target” (biotinylated plasma kallikrein) divided by the ELISA signal of the “background” (streptavidin); both of which were coated on microtiter plates, “nd” is not determined. The symbol “q” refers to the amber suppressible stop codon (TAG), which is translated as glutamine (Q) in strains of E. coli such as the TG1 cells that were used to express the Fab fragments.

T1 sequence (P03952 20-390, chain 1 of 2): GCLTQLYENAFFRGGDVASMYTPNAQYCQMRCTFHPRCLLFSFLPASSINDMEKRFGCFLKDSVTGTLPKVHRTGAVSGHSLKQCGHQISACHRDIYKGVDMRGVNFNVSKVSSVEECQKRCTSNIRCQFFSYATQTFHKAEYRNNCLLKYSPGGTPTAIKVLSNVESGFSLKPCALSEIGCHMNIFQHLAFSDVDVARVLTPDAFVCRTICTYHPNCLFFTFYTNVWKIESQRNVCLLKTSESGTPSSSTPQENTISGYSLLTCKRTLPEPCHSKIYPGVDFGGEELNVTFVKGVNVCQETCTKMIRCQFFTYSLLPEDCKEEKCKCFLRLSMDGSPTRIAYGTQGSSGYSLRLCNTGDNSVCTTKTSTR
T1 sequence (P03952 391-638, chain 2 of 2): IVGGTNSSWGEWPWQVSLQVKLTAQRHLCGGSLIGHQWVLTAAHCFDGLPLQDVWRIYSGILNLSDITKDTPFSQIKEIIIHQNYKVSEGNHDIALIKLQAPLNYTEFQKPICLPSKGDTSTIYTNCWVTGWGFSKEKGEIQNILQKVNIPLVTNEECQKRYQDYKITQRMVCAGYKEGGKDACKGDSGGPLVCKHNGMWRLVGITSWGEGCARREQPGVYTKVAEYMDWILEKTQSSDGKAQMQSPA

ELISA (T/B)	Binder
2.2 T/B	B1
12.4 T/B	B2
41 T/B	B3
1.5 T/B	B4
19 T/B	B5
10.5 T/B	B6
41.6 T/B	B7
35.9 T/B	B8
31.4 T/B	B9
4.1 T/B	B10
5.2 T/B	B11
33.1 T/B	B12
33 T/B	B13
2.2 T/B	B14
10 T/B	B15
2.3 T/B	B16
29.3 T/B	B17
